The results in this text go back to patent US20210292414A1 (H LUNDBECK A S, published 2021).

T1: Sortilin SORTECDBAP_hB01-05 (human/tetraodon chimera)
T1 construct: Shuffle construct: chimeric human/tetraodon Sortilin ECD with BAP tag
T1 chain: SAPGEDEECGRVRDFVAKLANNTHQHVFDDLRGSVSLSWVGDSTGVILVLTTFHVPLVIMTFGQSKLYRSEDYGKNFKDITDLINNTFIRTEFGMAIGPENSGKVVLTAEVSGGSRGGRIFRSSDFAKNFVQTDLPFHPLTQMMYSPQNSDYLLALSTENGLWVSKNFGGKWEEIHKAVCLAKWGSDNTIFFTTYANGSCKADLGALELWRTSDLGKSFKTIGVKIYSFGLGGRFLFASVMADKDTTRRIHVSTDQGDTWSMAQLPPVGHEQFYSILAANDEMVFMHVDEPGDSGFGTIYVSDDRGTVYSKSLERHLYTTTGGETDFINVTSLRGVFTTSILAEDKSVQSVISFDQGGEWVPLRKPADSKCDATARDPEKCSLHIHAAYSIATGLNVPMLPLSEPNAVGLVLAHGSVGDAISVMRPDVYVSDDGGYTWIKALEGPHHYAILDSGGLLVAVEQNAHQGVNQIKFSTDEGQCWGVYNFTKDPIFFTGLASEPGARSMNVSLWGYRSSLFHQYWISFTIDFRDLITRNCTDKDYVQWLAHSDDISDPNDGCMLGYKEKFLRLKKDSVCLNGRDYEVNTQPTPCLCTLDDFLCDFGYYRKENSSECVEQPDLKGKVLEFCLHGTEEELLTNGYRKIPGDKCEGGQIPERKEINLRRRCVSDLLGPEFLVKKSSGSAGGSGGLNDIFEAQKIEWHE

T2: hBack
T2 chimeric human/tetraodon Sortilin extracellular region, BAP tag: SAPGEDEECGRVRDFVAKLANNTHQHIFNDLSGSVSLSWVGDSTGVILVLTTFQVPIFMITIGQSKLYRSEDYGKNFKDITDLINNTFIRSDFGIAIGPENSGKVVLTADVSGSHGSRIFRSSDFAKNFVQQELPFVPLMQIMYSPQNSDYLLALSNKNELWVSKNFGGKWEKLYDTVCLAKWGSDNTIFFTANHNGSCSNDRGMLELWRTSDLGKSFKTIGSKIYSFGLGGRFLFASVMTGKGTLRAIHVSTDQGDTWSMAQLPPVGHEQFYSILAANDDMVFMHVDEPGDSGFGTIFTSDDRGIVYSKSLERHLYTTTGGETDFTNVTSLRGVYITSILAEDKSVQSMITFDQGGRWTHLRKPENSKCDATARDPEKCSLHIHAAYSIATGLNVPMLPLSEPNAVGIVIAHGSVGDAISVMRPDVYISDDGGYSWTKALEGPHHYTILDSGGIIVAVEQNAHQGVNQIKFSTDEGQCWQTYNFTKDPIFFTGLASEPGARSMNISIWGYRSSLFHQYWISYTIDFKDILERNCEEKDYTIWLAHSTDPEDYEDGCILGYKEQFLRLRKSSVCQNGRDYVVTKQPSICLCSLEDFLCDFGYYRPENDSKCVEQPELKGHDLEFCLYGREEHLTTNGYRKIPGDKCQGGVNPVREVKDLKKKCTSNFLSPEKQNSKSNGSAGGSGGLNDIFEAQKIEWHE

T3: Sortilin SORTECDBAP_hB06-10 (human/tetraodon chimera)
T3 construct: Shuffle construct: chimeric human/tetraodon Sortilin ECD with BAP tag
T3 chain: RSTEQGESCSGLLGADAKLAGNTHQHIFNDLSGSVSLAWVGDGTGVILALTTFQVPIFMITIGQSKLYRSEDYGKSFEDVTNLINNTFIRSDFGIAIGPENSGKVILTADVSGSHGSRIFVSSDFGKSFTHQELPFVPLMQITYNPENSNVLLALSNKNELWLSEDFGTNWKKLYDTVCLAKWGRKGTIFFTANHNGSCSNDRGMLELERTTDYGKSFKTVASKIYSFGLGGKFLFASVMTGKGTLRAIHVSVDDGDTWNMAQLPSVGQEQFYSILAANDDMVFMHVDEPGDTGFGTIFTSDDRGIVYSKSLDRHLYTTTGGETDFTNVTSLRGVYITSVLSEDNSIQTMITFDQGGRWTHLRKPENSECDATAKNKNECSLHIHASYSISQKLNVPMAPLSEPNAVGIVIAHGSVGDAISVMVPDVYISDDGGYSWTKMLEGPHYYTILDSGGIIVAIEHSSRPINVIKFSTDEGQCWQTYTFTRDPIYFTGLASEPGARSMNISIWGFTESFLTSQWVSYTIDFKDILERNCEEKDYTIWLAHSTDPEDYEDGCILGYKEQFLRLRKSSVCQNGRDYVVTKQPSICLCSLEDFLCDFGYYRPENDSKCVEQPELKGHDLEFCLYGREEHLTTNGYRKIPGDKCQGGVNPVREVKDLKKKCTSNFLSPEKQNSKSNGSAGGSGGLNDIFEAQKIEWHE

T4: hRim
T4 chimeric human/tetraodon Sortilin extracellular region, BAP tag: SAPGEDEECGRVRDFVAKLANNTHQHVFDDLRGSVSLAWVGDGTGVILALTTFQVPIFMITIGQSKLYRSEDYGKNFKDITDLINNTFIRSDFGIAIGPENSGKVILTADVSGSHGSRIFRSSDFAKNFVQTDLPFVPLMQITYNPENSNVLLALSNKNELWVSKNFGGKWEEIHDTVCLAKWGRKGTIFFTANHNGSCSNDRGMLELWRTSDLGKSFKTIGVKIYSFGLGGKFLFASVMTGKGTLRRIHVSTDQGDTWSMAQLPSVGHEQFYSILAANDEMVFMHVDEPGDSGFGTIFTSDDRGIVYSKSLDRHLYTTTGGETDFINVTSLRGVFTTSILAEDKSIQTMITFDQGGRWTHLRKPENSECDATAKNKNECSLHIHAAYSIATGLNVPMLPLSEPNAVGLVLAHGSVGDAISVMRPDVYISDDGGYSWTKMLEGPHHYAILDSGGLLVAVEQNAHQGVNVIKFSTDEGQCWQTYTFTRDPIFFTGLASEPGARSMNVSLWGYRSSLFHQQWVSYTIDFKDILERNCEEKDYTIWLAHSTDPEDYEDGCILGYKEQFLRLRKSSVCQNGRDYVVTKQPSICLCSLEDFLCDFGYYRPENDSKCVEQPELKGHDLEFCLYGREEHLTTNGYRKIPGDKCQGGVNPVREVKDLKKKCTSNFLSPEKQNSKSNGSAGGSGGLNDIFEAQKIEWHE

B1: Antibody 6003-030 (antibody, human IgG1, V domains shown)
VH: EVQVLESGGGLVQPGGSLRLSCAASGFTFSSYAMSWVRQAPGKGLEWVSTISGRGGNTYYADSVKGRFTISRDNSKNTLYLQMDSLRAEDTAVYYCAIIPSLYWYFDLWGRGTLVTVSS
VL: EIVLTQSPATLSLSPGERATLSCRASQSVSSYLAWYQQKPGQAPRLLIYDASNRATGIPARFSGSGSGTDFTLTISSLEPEDFAVYYCQQRSNWPLTFGGGTKVEIK
notes: Human antibody (HuMab); also called antibody 30; mAb30
B2: Antibody 6003-028 (antibody, human IgG1, V domains shown)
VH: B1 VH with V4L, N57S, D84N, I98N, I99L, P100Y, L102N
VL: B1 VL with Y32F
B3: Antibody 6003-083 (antibody, human IgG1, V domains shown)
VH: B1 VH with V4L, N57S, D84N, I99V, P100A, S101T, L102M
VL: B1 VL with L96I, G100Q, K103R, V104L
B4: Antibody 6003-056 (antibody, human IgG1, V domains shown)
VH: B1 VH with A23V, S35H, T50A, N57S, D84N
VL: B1 VL with Y32F
B5: Antibody 6003-1286 (antibody, human IgG1, V domains shown)
VH: B1 VH with V4L, D84N, T91A, I98N, P100Y, L102H
VL: B1 VL with S30N
B6: IgG1-6003-408 (antibody, V domains shown)
VH: EVQLVESGGGLVKPGGSLRLSCAASGFTFSSYSMNWVRQAPGKGLEWVSSISSSSSYIYYADSVKGRFTISRDNAKNSLYLQMNSLRAEDTAVYYCARRRIAAAGTGYGAFDIWGQGTMVTVSS
VL: ARQLTQSPSSLSASVGDRVTITCRASQGITSALAWYQQKPGKVPKLLIYDASSLESGVPSRFSGSGSGTDFTLTISSLQPEDFATYYCQQFNGYPMFSFGQGTKLEII
notes: also called Antibody 6003-408
B7: Antibody 6003-1277 (antibody, V domains shown)
VH: QVQLVQSGAEVKKPGASVKVSCKTSGYTFTHYGISWVRQAPGQGLEWMGWINTYNGNTKYAQKLQGRVTMTTDTSTSTAYMELRSLRSDDTAVYYCASLGRNFDYWGQGTLVTVSS
VL: not shown
B8: Antibody 6003-381 (antibody, human IgG1, V domains shown)
VH: QVQLVESGGGVVQPGRSLRLSCAASGFTFSNYVMHWVRQAPGKGLEWVAAISYNGNNKYYADSVKGRFTISRDNSKNTLYLQMNSLRAEDTAVSYCAKGLNDAFDIWGQGTMVTVSS
VL: not shown

Where a chain is given by its changes, count along the chain named.

The first experiment has as its target T1, Sortilin SORTECDBAP_hB01-05. As to the kind of experiment: BLI (Octet384RED).
Take B1: the binding result was “no binding”.

Regarding B2, the binding result is “no binding”.

As to B3, the binding result is “no binding”.

For the molecule B4, the binding result is “no binding”.

With B5, the binding result is recorded as “no binding”.

In the case of B6, the binding result is “no binding”.

In the case of B7, the binding result was “no binding”.

For the molecule B8, the binding result is “no binding”.

The next experiment deals with T2, hBack. In words: BLI (Octet384RED).
In the case of B1, the EC50 came out at 0.85 ng/mL.

Regarding B2, the concentration for a half-maximal effect (EC50) came out at 1.87 ng/mL.

In turn, B3 showed an EC50 of 1.34 ng/mL.

For B4, the EC50 was 1.14 ng/mL.

In turn, B5 gave an EC50 of 1.02 ng/mL. This EC50 and that of the molecule before are within 1.5-fold of each other.

B6: the concentration giving a half-maximal response (EC50) was 2.37 ng/mL.

B7 had an EC50 of 4.07 ng/mL.

For the molecule B8, it took 1.6 ng/mL to reach a half-maximal effect (EC50). Against the preceding molecule, the EC50 is about 2.5-fold lower.

The target of the next experiment is T3, Sortilin SORTECDBAP_hB06-10. As to the kind of experiment: BLI (Octet384RED).
Take B1: the 50% effective concentration (EC50) was 0.74 ng/mL.

For B2, the EC50 came out at 1.56 ng/mL.

Molecule B3 showed a concentration giving a half-maximal response (EC50) of 0.76 ng/mL. Compared with the last molecule, the EC50 is about 2.1-fold lower.

In turn, B4 displayed an EC50 of 0.97 ng/mL.

As to B5, it took 0.87 ng/mL to reach a half-maximal effect (EC50). This EC50 and that of the molecule before are within 1.5-fold of each other.

B6: the EC50 came out at 1.68 ng/mL. This EC50 is about 1.9-fold higher than that of the molecule before.

Take B7: the EC50 came to 2.62 ng/mL.

As for B8, a half-maximal response (EC50) required 1.34 ng/mL. Against the preceding molecule, the EC50 is about 2-fold lower.

Another experiment has as its target T4, hRim. As to the kind of experiment: BLI (Octet384RED).
The molecule B1 returned a concentration for a half-maximal effect (EC50) of 0.86 ng/mL.

B2: the concentration for a half-maximal effect (EC50) is 2.04 ng/mL.

As to B3, the concentration for a half-maximal effect (EC50) was 0.99 ng/mL.

B4 had an EC50 of 1.24 ng/mL. This EC50 and that of the molecule before are within 1.5-fold of each other.

In the case of B5, the EC50 is 1.05 ng/mL.

The molecule B6 had a concentration giving a half-maximal response (EC50) of 2.78 ng/mL.

As for B7, the EC50 worked out at 4.34 ng/mL.

Regarding B8, the EC50 is 2.28 ng/mL.

A word on the EC50: it is the concentration needed to bring the measured effect to its halfway point. Low values mean higher potency in that assay, high ones lower potency in that assay.
